Laboratory results as given in paper PMC8577158, “Phylogenetic analysis and in-depth characterization of functionally and structurally diverse CE5 cutinases” (The Journal of Biological Chemistry, 2021).

What was measured:
[1] = target: T1, FsCut (Fusarium vanettenii, UniProt P00590); test: pNP release at […] nm, nonlinear Michaelis-Menten fit; conditions: read-out: FsCut; 50 mM sodium phosphate pH 7, 40 °C
T1 construct: gene CUT1

[2] = tested on: CCCC(=O)Oc1ccc([N+](=O)[O-])cc1; test: purified protein; conditions: 50 mM sodium phosphate pH 7, 40 °C
[3] = tested on: CCCCCCCCCCCCCCCC(=O)Oc1ccc([N+](=O)[O-])cc1; test: purified protein; conditions: 50 mM sodium phosphate pH 7, 40 °C
[4] = tested on: CCCCCCCCCCCC(=O)Oc1ccc([N+](=O)[O-])cc1; test: purified protein; conditions: 50 mM sodium phosphate pH 7, 40 °C
[5] = tested on: CCCCCCCC(=O)Oc1ccc([N+](=O)[O-])cc1; test: purified protein; conditions: 50 mM sodium phosphate pH 7, 40 °C
[6] = substrate: CCCCCCCC(=O)Oc1ccc([N+](=O)[O-])cc1; test: purified protein; type: biochemical, Cryptococcus sp. S-2; conditions: 50 mM sodium phosphate pH 7, 40 °C
[7] = substrate: CCCCCCCCCCCCCCCC(=O)Oc1ccc([N+](=O)[O-])cc1; test: purified protein; type: biochemical, Cryptococcus sp. S-2; conditions: 50 mM sodium phosphate pH 7, 40 °C
[8] = substrate: CCCC(=O)Oc1ccc([N+](=O)[O-])cc1; test: purified protein; type: biochemical, Cryptococcus sp. S-2; conditions: 50 mM sodium phosphate pH 7, 40 °C
[9] = substrate: CCCCCCCCCCCC(=O)Oc1ccc([N+](=O)[O-])cc1; test: purified protein; type: biochemical, Cryptococcus sp. S-2; conditions: 50 mM sodium phosphate pH 7, 40 °C
[10] = substrate: CCCCCCCC(=O)Oc1ccc([N+](=O)[O-])cc1; test: purified protein; type: biochemical, Coprinopsis cinerea; conditions: 50 mM sodium phosphate pH 7, 40 °C
[11] = substrate: CCCCCCCCCCCCCCCC(=O)Oc1ccc([N+](=O)[O-])cc1; test: purified protein; type: biochemical, Coprinopsis cinerea; conditions: 50 mM sodium phosphate pH 7, 40 °C
[12] = substrate: CCCC(=O)Oc1ccc([N+](=O)[O-])cc1; test: purified protein; type: biochemical, Coprinopsis cinerea; conditions: 50 mM sodium phosphate pH 7, 40 °C
[13] = substrate: CCCCCCCCCCCC(=O)Oc1ccc([N+](=O)[O-])cc1; test: purified protein; type: biochemical, Coprinopsis cinerea; conditions: 50 mM sodium phosphate pH 7, 40 °C
[14] = substrate: CCCCCCCC(=O)Oc1ccc([N+](=O)[O-])cc1; test: purified protein; type: biochemical, Thermothielavioides terrestris; conditions: 50 mM sodium phosphate pH 7, 40 °C
[15] = substrate: CCCCCCCCCCCCCCCC(=O)Oc1ccc([N+](=O)[O-])cc1; test: purified protein; type: biochemical, Thermothielavioides terrestris; conditions: 50 mM sodium phosphate pH 7, 40 °C
[16] = substrate: CCCC(=O)Oc1ccc([N+](=O)[O-])cc1; test: purified protein; type: biochemical, Thermothielavioides terrestris; conditions: 50 mM sodium phosphate pH 7, 40 °C
[17] = substrate: CCCCCCCCCCCC(=O)Oc1ccc([N+](=O)[O-])cc1; test: purified protein; type: biochemical, Thermothielavioides terrestris; conditions: 50 mM sodium phosphate pH 7, 40 °C

T1 sequence (P00590 32-230): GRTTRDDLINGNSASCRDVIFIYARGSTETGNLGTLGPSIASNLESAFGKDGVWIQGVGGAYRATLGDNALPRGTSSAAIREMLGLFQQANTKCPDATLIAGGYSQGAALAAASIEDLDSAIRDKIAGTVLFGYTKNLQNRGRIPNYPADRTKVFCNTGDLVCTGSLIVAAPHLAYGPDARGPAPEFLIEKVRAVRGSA

## CCCC(=O)Oc1ccc([N+](=O)[O-])cc1 [pNP-C4]
[1]
  Km: 1670 ± 40 µM

## PbCut (Pyrenopeziza brassicae)
[2]
  Km: 1710 ± 170 µM
  kcat: 6.45 ± 0.52 s⁻¹
  kcat/Km: 3790 ± 70 M⁻¹ s⁻¹
[3]
  Km: 40 ± 10 µM
  kcat: 0.08 s⁻¹
  kcat/Km: 2070 ± 250 M⁻¹ s⁻¹
[4]
  Km: 80 ± 10 µM
  kcat: 0.2 s⁻¹
  kcat/Km: 2500 ± 180 M⁻¹ s⁻¹
[5]
  Km: 540 ± 70 µM
  kcat: 1.43 ± 0.09 s⁻¹
  kcat/Km: 2650 ± 190 M⁻¹ s⁻¹

## FsCut (Fusarium vanettenii)
[3]
  Km: 10 ± 0 µM
  kcat: 0.15 s⁻¹
  kcat/Km: 10600 ± 1060 M⁻¹ s⁻¹
[4]
  Km: 50 ± 10 µM
  kcat: 1.22 ± 0.03 s⁻¹
  kcat/Km: 22800 ± 2090 M⁻¹ s⁻¹
[5]
  Km: 720 ± 10 µM
  kcat: 6.69 ± 0.24 s⁻¹
  kcat/Km: 9250 ± 260 M⁻¹ s⁻¹

B1: CspCut (Cryptococcus sp. S-2) (protein)
chain: ATSSACPQYVLINTRGTGEPQGQSAGFRTMNSQITAALSGGTIYNTVYTADFSQNSAAGTADIIRRINSGLAANPNVCYILQGYSQGAAATVVALQQLGTSGAAFNAVKGVFLIGNPDHKSGLTCNVDSNGGTTTRNVNGLSVAYQGSVPSGWVSKTLDVCAYGDGVCDTAHGFGINAQHLSYPSDQGVQTMGYKFAVNKLGGSA
[6]
  Km: 50 ± 0 µM
  kcat: 3.81 ± 0.27 s⁻¹
  kcat/Km: 83200 ± 4200 M⁻¹ s⁻¹
[7]
  Km: 50 ± 0 µM
  kcat: 3.38 ± 0.12 s⁻¹
  kcat/Km: 70700 ± 6470 M⁻¹ s⁻¹
[8]
  Km: 5540 ± 500 µM
  kcat: 13.5 ± 0.25 s⁻¹
  kcat/Km: 2510 ± 270 M⁻¹ s⁻¹
[9]
  Km: 50 ± 0 µM
  kcat: 3.49 ± 0.06 s⁻¹
  kcat/Km: 65970 ± 600 M⁻¹ s⁻¹

B2: CcCut (Coprinopsis cinerea) (protein)
chain: QLFCRDVYVFFARGTGEVGTLGTVVGPGLSAAVKLAVRDSVEFEGIDYPALVSGYLAGGDRGGARTMANKVSQTASRCPNAKIFISGYSQGAQVTHLAARQLSAADQARVTGVVTFGDPYRDDALPGGLQSRRKTYCNVGDLICAGLPTLLAPHFTYGSDTPDAARWIAARV
[10]
  Km: 1670 ± 180 µM
[11]
  Km: 2900 ± 200 µM
[12]
  Km: 3560 ± 150 µM
  kcat: 8.96 ± 0.39 s⁻¹
  kcat/Km: 2520 M⁻¹ s⁻¹
[13]
  Km: 2760 ± 50 µM

B3: TtCut (Thermothielavioides terrestris NRRL 8126) (protein)
chain: APTQPAGEAAVEARQLFSDTANDLENGVSSNCPKVIFICARGSTETGNLGSSVCPEVANGLKNYYPNQLWVQGVGGAYTADLASNALPGGTSTAAMQEAANMFNLAQQKCPNASVAAGGYSQGTAVVAGGIQSLSAAAKDQIKGVVLFGYTQAQQNHDTIPNFPVDKTMIFCAQGDLVCNGTLIVTAAHFSYITNGDASTKGPAWLHEKIGDA
[14]
  Km: 390 ± 10 µM
  kcat: 2.3 ± 0.06 s⁻¹
  kcat/Km: 5810 ± 50 M⁻¹ s⁻¹
[15]
  Km: 500 ± 90 µM
[16]
  Km: 7080 ± 90 µM
[17]
  Km: 210 ± 0 µM
